Assay: yeast display, Sf9 membrane polyspecificity reagent, FACS + sequencing; frameworks hold sequencing errors
Procedure, shortened: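 In a synthetic yeast display library (Saccharomyces cerevisiae BJ5465), nanobody expression was induced with galactose for 36–48 hours. FACS gates were set low and high (top ~1%) using anti-HA fluorescence for expression and streptavidin fluorescence for binding of the Sf9 membrane reagent. Each polyreactivity label is drawn from the gate of origin.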

Sequence	polyreactivity (PSR sort gate)
QVQLVESGGGLVHAGGSLRLSCAASGRTFYRYGMGWYREARGKERELVAAISNRGGTTYYADSLKGRFTISRDNAKNTVYLQMNSLKPEDTAVYYCAADSVYAEYDSWGQGTQVTVSS	low polyreactivity
QVQLQESAGGLVQAGDSQRMSCAASGNSFRFTDMGWYRQAPGKERELVAAINAGSTTYYADSVKGRFTISLDNAKNTVYLQMNSLKPEDTAVYYCAVYYLGSGTFGYWGQGAQVTVSS	high polyreactivity
QDQLVESGGGLVQAGGSLRLSCAASGRIFRYYAMGWYRQAPGKERELVAGMSGSGGSTYYADSVKGRFTISRDNAKNTVYLQMNSLKPEDTAVYYCAADYVRVGSLHGVYTYKKYDYWGQGTQVTVSS	high polyreactivity
QVQLVESGGGLVQAGGSLRLSCAASGRIFGYYAMGWYRQAPGKERELVATINSVGSTNYADSVKGRFTISRDNAKNTVYLQMNSLKPEDTAVYYCATDSAYTFFTYRLWRHGYWGQGTQVTVSS	low polyreactivity
QVQLVESGGGLVQAGGSLRLSCAASGIILYVNAMGWYRQAPGKEREFVAAISWGGGSTYYADSVKGRFTISRDNAKNTVYLQMNSLKPEDTAVYYCAAEFWSGYPTYTYDYWGQGTQVTVSS	low polyreactivity
QVQLVESGGGLVQAGGSLRLSCAASGRIFSYNAMGWYRQAPGKERELVAAISYSGGRTYYADSVKGRFTISRDNAKNTVYLQMNSLKPEDTAVYYCAAAYGGSLRYTAGYYWGQGTQVTVSS	high polyreactivity
QVQLVESGGGLVQAGGSLRLSCAASGSTFDIYAMGWYRQAPGKERELVAAIRYSGGSTYYADSVKGRFTISRDNAKYTVYLQMNSLKPEDTAVYYCAADPYQLWHYYYFGMDYWGQGTEVTVSS	low polyreactivity
QVQLVESGGGLVQAGGSLRLSCAASGLTFSSYAMGWYRQAPGKERELVAAISLSGGRTYYADSVKGRFTISRDNAKNTVYLQMNSLKPEDTAVYYCAARRPNLQHANDYWGQGTQVTVSS	high polyreactivity
QVQLVESGGGLVQAGGSLRLSCAAYGSIIVRYAMGWYGQAPGKVRELVPTITFRDTSTYYADSVKGRFTSSRDNAKNTVYLQMNSLKPEDSAVYYCNAHIPTNRSYVPAVRGEDDYWGQGTQVTVSS	low polyreactivity
QVQLVESGGGLVQAGGSLRLSCAASGSTFYVNAMGWNRQAPGKEREFVAAISWSGGSTYYADSVKGRFTISRDNAKNTVYLQMNSLKPEDTAVYYCAADRVRKDGVLFDYWGQGTQVTVSS	high polyreactivity
QVQLVESGGGLVQAGGSLRLSCAASGSTFAVIVMGWYRQAPGKERELVATITYRDGRTYYADSVKGRFTISRDNAKNTVYLQMNSLKPEDTAVYYCAADDEYKQEAEMDSWGQGTQVTVSS	low polyreactivity
QVQLVESGGGLVQAGGSLRLSCAASGRIFPYYAMGWYRQAPGKERELVATISGGGSTDYADSVKGRFTISRDNAKNTVYLQMNSLKPEDTAVYYFAKKLRGWHTIITDYDYWGQGTQVTVSS	low polyreactivity
QVQLVESGGGLVQAGGSLRLSCAATGSTFRNNAMGWSRQAPGKERELVAAISRGGGSTYYADSVKGRFTISRDNAKNTVYLQMNSLKPEVTAVYYCARRPTGIYDYWGQGTQVTLSS	high polyreactivity
QVQLVESGGGLVQAGGSLRLSCAASGSIFRSYAMGWYRQAPGKERELVAAITSGDSTYYADSVKGRFTISRDNAKNTVYLQMNSLKPEDTAVYYCATGLGSTDRSYEYWGQGTQVTVSS	low polyreactivity
QVQLVDSGGGLVQAGGSLRLSCAASGRTFGYNAMGCYRQATGKERELVAAISSSGGSTYYADSVKGRFTISRDYAKNTVYLQMNSLKPEDTAVYYCATQGYSWAHGSDFWGQGTQVTVSS	low polyreactivity
QVQLVESGGGLVQAGGSLRLSCAASGITFWAYAMGWYRQAPGKERELVASISSGGSTYYADSVKGRFTISRDNAKNTVYLQMNSLKPEDTAVYYCAATTLRWYGDTFNYWGQGTQVTVSS	high polyreactivity

Sequence	polyreactivity (PSR sort gate)
QVQLVESGGGLVQAGGSLRLSCAASGNIFRPYTMGWYRQAPGKERELVARISSGGSTNYADSVKGRFTISRDNGKYTDYFQLNSLKPEVTAVYYWSKRYGTVLSRYGYLGQGTQVTVSS	high polyreactivity
QVQLVESGGGLVQAGGSLRLSCAASGSIFDVNAMGWYRQAPGKERELVAAISDSTTSTYYADSVKGRFTISRDNAKNTVYLQMNSLKPEDTAVYYCNTPGLPIDSEYDYWGQGTQVTVSS	low polyreactivity
QVQLVESGGGLVQAGGSLRLSCADSGRTFYSYAMGWYRQAPGKERELVAAISASGGRTYYADSVKGRFTISRDNAKNTVYLQMNSLKPEDTAVYYCAAYVSGYRWGYDYWGQGTQVTVSS	high polyreactivity
QVQLVESGGGLFQAGGSLRLSCAASGLTFYIYAMGWYRQAPGKEREFVAAIRRSGGRTYYADSVKGRFTISRDNAKNTVYLQMNSLKPEDTAVYYCNRYTQYRDRSDNHWGQGTQVTVSS	high polyreactivity
QVQLVESGGGLVQAGGSLRLSCAASGRTFRANTMGWYRQAPGKERELVAAINWSGGSTYYADSVKGRFTISRDNAKNTVYLQMNSLKPEDTAVYYCAKRVSVSYRKSTYDYWGQGTQVTVSS	high polyreactivity
QVQLVESGGGLVQAGGSLRLICAPSGRIFEGYAMGWYRPATRKERELVAAISRGGGSTYYADSVKGRFTISRDNAKNTVYLQMNSLIPEDTAVYYCAKVPLTYSRSGYEYDYWGQGTQVSVSS	low polyreactivity
QVQLGETGGGLVQAGGSLRLICAASGSTFTINGMGWSRQAPGKDRELVAAITSGGSTYYADSVKGRFTISRDNAKNTVYLQMNSLKPEDTAVYFCAAADGRDYWGQGTQVTVSS	low polyreactivity
QVQLVESGGGIVQAGGSLRLSCPASGFIGVNGMGWYIQAPGKERELVAAISSGGSTNYADSVKGRFTMSRDNAKNTVYLQMNSLKPEDTAVYYCAKDFLLDSFYHTYRYRYDYWGQGTQVTVSS	low polyreactivity
QVQLVESGGGLVQAGGSLRLSCAASGSTFDINAMGWYRQAPGKERELVAAISWGGGSTYYADSVKGRFTISRDNAKNTVYLQMNSLKPEDTAVYYCAKLKGTQPNRYDYWGQGTQVTVSS	low polyreactivity
QVQLVESGGGLVQAGGSLRLSCAASGIIFYIYTMGWYRQAPGKERELVAAINRSGSRTYYADSVKGRFTISRDYAKNNVYLQMNSLKPEDTAVYYCAAGTGSRDDYWGQGTQVTVST	high polyreactivity
QVQLVESGGGLVQGGGSLRLSCAASGINFRSYAMGRYRQAPGKERALVAAISWSGGSTYYADSVKGRFTISRDNAKNTVYLQMNSLKPDDTAVYYCAAKVRFSYGRGYDYWGQGTQVTVSS	high polyreactivity
QVQLVESGGGLVQAGGSLRISCAASGIILGYYPMGWYRQAPGKERELVAAINWSGASTYYADSVKGRFTISRDNAKNTVYLQMNCLKPEDTAVYDCNAVGYYYRGTGEYDYWGQGTQVTVSS	high polyreactivity
QVQLVESGGGLVQAGGSLRLSCAASGSIFVSYAMGWYRQAPGNDRELVAAISGGGVSTYYADSVKGRFSISRDNAKNTVYLQMNSLKPEDTAVYYCATPYVQTGSGYTGDYWGQGTQVTVSS	high polyreactivity
QVQLVESGGGLVQAGGSLRLSCAASGSIFIYYAMGWYRQAPGKERELVASISSSGSRTYYADSVKGRFTISRDNAKNTVYLQMNSLKPEETAVYYCAARYAIPRNYPQYNYWGQGTQVTVSS	high polyreactivity
QVQLVESGGGLVQAGGSLRLSCAASGITFVLNARGWYRQAPGKERELVARISWSTGSTYYADSVKGRFTISRDNAKNTVYLQMNSLKPEDTAVYYCAVDYNYQSLYVVVEGEYWGQGTQVTVSS	low polyreactivity

Source: the nanobody polyreactivity screen of Harvey et al. (2022)
